According to the supplement of paper PMC5998384:

Columns and labels:
[1] = tested on: HeLa Kyoto; assay: solubility in G1/S (NP-40 vs SDS abundance) (log2 ratio); higher = more soluble; conditions: cell cycle stage: G1/S
[2] = tested on: HeLa Kyoto; assay: solubility change mitosis vs G1/S (difference of NP-40 vs SDS log2 ratios) (log2 ratio difference); higher = more soluble in mitosis
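Wherever solubility change mitosis vs G1/S (difference of NP-40 vs SDS log2 ratios) is given: synchronized HeLa Kyoto cells (double thymidine block for G1/S, nocodazole release for mitosis), protein amounts in NP-40 versus SDS lysates quantified by mass spectrometry, three biological replicates.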
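Wherever solubility in G1/S (NP-40 vs SDS abundance) is given: HeLa Kyoto cells arrested at G1/S by double thymidine block, proteins quantified by TMT10plex mass spectrometry in mild NP-40 versus SDS extracts, three biological replicates.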

Row | Sequence | solubility in G1/S (log2) [1] | solubility change mitosis (log2) [2]
1 | MASNFKKANMASSSQRKRMSPKPELTEEQKQEIREAFDLFDADGTGTIDVKELKVAMRALGFEPKKEEIKKMISEIDKEGTGKMNFGDFLTVMTQKMSEKDTKEEILKAFKLFDDDETGKISFKNLKRVAKELGENLTDEELQEMIDEADRDGDGEVSEQEFLRIMKKTSLY [CETN2] | 0.117 | 0.68
2 | METAPKPGKDVPPKKDKLQTKRKKPRRYWEEETVPTTAGASPGPPRNKKNRELRPQRPKNAYILKKSRISKKPQVPKKPREWKNPESQRGLSGTQDPFPGPAPVPVEVVQKFCRIDKSRKLPHSKAKTRSRLEVAEAEEEETSIKAARSELLLAEEPGFLEGEDGEDTAKICQADIVEAVDIASAAKHFDLNLRQFGPYRLNYSRTGRHLAFGGRRGHVAALDWVTKKLMCEINVMEAVRDIRFLHSEALLAVAQNRWLHIYDNQGIELHCIRRCDRVTRLEFLPFHFLLATASETGFLTYLDVSVGKIVAALNARAGRLDVMSQNPYNAVIHLGHSNGTVSLWSPAMKEPLAKILCHRGGVRAVAVDSTGTYMATSGLDHQLKIFDLRGTYQPLSTRTLPHGAGHLAFSQRGLLVAGMGDVVNIWAGQGKASPPSLEQPYLTHRLSGPVHGLQFCPFEDVLGVGHTGGITSMLVPGAGEPNFDGLESNPYRSRKQRQEWEVKALLEKVPAELICLDPRALAEVDVISLEQGKKEQIERLGYDPQAKAPFQPKPKQKGRSSTASLVKRKRKVMDEEHRDKVRQSLQQQHHKEAKAKPTGARPSALDRFVR [WDR46] | -1.25 | 0.592
3 | MPCVQAQYSPSPPGSSYAAQTYSSEYTTEIMNPDYTKLTMDLGSTEITATATTSLPSISTFVEGYSSNYELKPSCVYQMQRPLIKVEEGRAPSYHHHHHHHHHHHHHHQQQHQQPSIPPASSPEDEVLPSTSMYFKQSPPSTPTTPAFPPQAGALWDEALPSAPGCIAPGPLLDPPMKAVPTVAGARFPLFHFKPSPPHPPAPSPAGGHHLGYDPTAAAALSLPLGAAAAAGSQAAALESHPYGLPLAKRAAPLAFPPLGLTPSPTASSLLGESPSLPSPPSRSSSSGEGTCAVCGDNAACQHYGVRTCEGCKGFFKRTVQKNAKYVCLANKNCPVDKRRRNRCQYCRFQKCLSVGMVKEVVRTDSLKGRRGRLPSKPKSPLQQEPSQPSPPSPPICMMNALVRALTDSTPRDLDYSRYCPTDQAAAGTDAEHVQQFYNLLTASIDVSRSWAEKIPGFTDLPKEDQTLLIESAFLELFVLRLSIRSNTAEDKFVFCNGLVLHRLQCLRGFGEWLDSIKDFSLNLQSLNLDIQALACLSALSMITERHGLKEPKRVEELCNKITSSLKDHQSKGQALEPTESKVLGALVELRKICTLGLQRIFYLKLEDLVSPPSIIDKLFLDTLPF [NR4A3] | -0.0603 | -0.0421
4 | MGAAAAEADRTLFVGNLETKVTEELLFELFHQAGPVIKVKIPKDKDGKPKQFAFVNFKHEVSVPYAMNLLNGIKLYGRPIKIQFRSGSSHAPQDVSLSYPQHHVGNSSPTSTSPSRYERTMDNMTSSAQIIQRSFSSPENFQRQAVMNSALRQMSYGGKFGSSPLDQSGFSPSVQSHSHSFNQSSSSQWRQGTPSSQRKVRMNSYPYLADRHYSREQRYTDHGSDHHYRGKRDDFFYEDRNHDDWSHDYDNRRDSSRDGKWRSSRH [RBM7] | 0.568 | 0.189
5 | MTALSARMLTRSRSLGPGAGPRGCREEPGPLRRREAAAEARKSHSPVKRPRKAQRLRVAYEGSDSEKGEGAEPLKVPVWEPQDWQQQLVNIRAMRNKKDAPVDHLGTEHCYDSSAPPKVRRYQVLLSLMLSSQTKDQVTAGAMQRLRARGLTVDSILQTDDATLGKLIYPVGFWRSKVKYIKQTSAILQQHYGGDIPASVAELVALPGVGPKMAHLAMAVAWGTVSGIAVDTHVHRIANRLRWTKKATKSPEETRAALEEWLPRELWHEINGLLVGFGQQTCLPVHPRCHACLNQALCPAAQGL [NTHL1] | 0.0579 | 0.29
6 | MGLEDEQKMLTESGDPEEEEEEEEELVDPLTTVREQCEQLEKCVKARERLELCDERVSSRSHTEEDCTEELFDFLHARDHCVAHKLFNNLK [UQCRH] | -0.528 | 0.641
7 | MPNFSGNWKIIRSENFEELLKVLGVNVMLRKIAVAAASKPAVEIKQEGDTFYIKTSTTVRTTEINFKVGEEFEEQTVDGRPCKSLVKWESENKMVCEQKLLKGEGPKTSWTRELTNDGELILTMTADDVVCTRVYVRE [CRABP2] | -0.0816 | -0.109
8 | MAEAVERTDELVREYLLFRGFTHTLRQLDAEIKADKEKGFRVDKIVDQLQQLMQVYDLAALRDYWSYLERRLFSRLEDIYRPTIHKLKTSLFRFYLVYTIQTNRNDKAQEFFAKQATELQNQAEWKDWFVLPFLPSPDTNPTFATYFSRQWADTFIVSLHNFLSVLFQCMPVPVILNFDAECQRTNQVQEENEVLRQKLFALQAEIHRLKKEEQQPEEEEALVQHKLPPYVSNMDRLGDSELAMVCSQRNASLSQSPRVGFLSSLLPQSKKSPSRLSPAQGPPQPQSSAKKESFGGQGTKGKDPTSGAKDGKSLLSGLATGESGWSQHRQRRLQDHGKERKELFSTTTSQCAEKKPEASGPEAEPCPELHTEPVEPLTRASSAGPEGGGVRPEQPFIVLGQEEYGEHHSSIMHCRVDCSGRRVASLDVDGVIKVWSFNPIMQTKASSISKSPLLSLEWATKRDRLLLLGSGVGTVRLYDTEAKKNLCEININDNMPRILSLACSPNGASFVCSAAAPSLTSQVDFSAPDIGSKGMNQVPGRLLLWDTKTMKQQLQFSLDPEPIAINCTAFNHNGNLLVTGAADGVIRLFDMQQHECAMSWRAHYGEVYSVEFSYDENTVYSIGEDGKFIQWNIHKSGLKVSEYSLPSDATGPFVLSGYSGYKQVQVPRGRLFAFDSEGNYMLTCSATGGVIYKLGGDEKVLESCLSLGGHRAPVVTVDWSTAMDCGTCLTASMDGKIKLTTLLAHKA [WDR91] | -0.122 | 0.0607
9 | MKLHYVAVLTLAILMFLTWLPESLSCNKALCASDVSKCLIQELCQCRPGEGNCSCCKECMLCLGALWDECCDCVGMCNPRNYSDTPPTSKSTVEELHEPIPSLFRALTEGDTQLNWNIVSFPVAEELSHHENLVSFLETVNQPHHQNVSVPSNNVHAPYSSDKEHMCTVVYFDDCMSIHQCKISCESMGASKYRWFHNACCECIGPECIDYGSKTVKCMNCMF [TWSG1] | 0.0362 | -0.383
10 | MADWARAQSPGAVEEILDRENKRMADSLASKVTRLKSLALDIDRDAEDQNRYLDGMDSDFTSMTSLLTGSVKRFSTMARSGQDNRKLLCGMAVGLIVAFFILSYFLSRART [BET1L] | -0.104 | 0.0489
11 | MAGPPALPPPETAAAATTAAAASSSAASPHYQEWILDTIDSLRSRKARPDLERICRMVRRRHGPEPERTRAELEKLIQQRAVLRVSYKGSISYRNAARVQPPRRGATPPAPPRAPRGAPAAAAAAAPPPTPAPPPPPAPVAAAAPARAPRAAAAAATAPPSPGPAQPGPRAQRAAPLAAPPPAPAAPPAVAPPAGPRRAPPPAVAAREPPLPPPPQPPAPPQQQQPPPPQPQPPPEGGAVRAGGAARPVSLREVVRYLGGSGGAGGRLTRGRVQGLLEEEAAARGRLERTRLGALALPRGDRPGRAPPAASARPSRSKRGGEERVLEKEEEEDDDEDEDEEDDVSEGSEVPESDRPAGAQHHQLNGERGPQSAKERVKEWTPCGPHQGQDEGRGPAPGSGTRQVFSMAAMNKEGGTASVATGPDSPSPVPLPPGKPALPGADGTPFGCPPGRKEKPSDPVEWTVMDVVEYFTEAGFPEQATAFQEQEIDGKSLLLMQRTDVLTGLSIRLGPALKIYEHHIKVLQQGHFEDDDPDGFLG [SAMD1] | -0.144 | 0.323
12 | MRSLRKKREKPRPEQWKGLPGPPRAPEPEDVAVPGGVDLLTLPQLCFPGGVCVATEPKEDCVHFLVLTDVCGNRTYGVVAQYYRPLHDEYCFYNGKTHRECPGCFVPFAVCVVSRFPYYNSLKDCLSCLLALLKPCKDFEVDSHIKDFAAKLSLIPSPPPGPLHLVFNMKSLQIVLPARADPESPILDLDLHLPLLCFRPEKVLQILTCILTEQRIVFFSSDWALLTLVTECFMAYLYPLQWQHPFVPILSDQMLDFVMAPTSFLMGCHLDHFEEVSKEADGLVLINIDHGSITYSKSTDDNVDIPDVPLLAAQTFIQRVQSLQLHHELHAAHLLSSTDLKEGRAHRRSWQQKLNCQIQQTTLQLLVSIFRDVKNHLNYEHRVFNSEEFLKTRAPGDHQFYKQVLDTYMFHSFLKARLNRRMDAFAQMDLDTQSEEDRINGMLLSPRRPTVEKRASRKSSHLHVTHRRMVVSMPNLQDIAMPELAPRNSSLRLTDTAGCRGSSAVLNVTPKSPYTFKIPEIHFPLESKCVQAYHAHFVSMLSEAMCFLAPDNSLLLARYLYLRGLVYLMQGQLLNALLDFQNLYKTDIRIFPTDLVKRTVESMSAPEWEGAEQAPELMRLISEILDKPHEASKLDDHVKKFKLPKKHMQLGDFMKRVQESGIVKDASIIHRLFEALTVGQEKQIDPETFKDFYNCWKETEAEAQEVSLPWLVMEHLDKNECVCKLSSSVKTNLGVGKIAMTQKRLFLLTEGRPGYLEISTFRNIEEVRRTTTTFLLRRIPTLKIRVASKKEVFEANLKTECDLWHLMVKEMWAGKKLADDHKDPHYVQQALTNVLLMDAVVGTLQSPGAIYAASKLSYFDKMSNEMPMTLPETTLETLKHKINPSAGEAFPQAVDVLLYTPGHLDPAEKVEDAHPKLWCALSEGKVTVFNASSWTIHQHSFKVGTAKVNCMVMADQNQVWVGSEDSVIYIINVHSMSCNKQLTAHCSSVTDLIVQDGQEAPSNVYSCSMDGMVLVWNVSTLQVTSRFQLPRGGLTSIRLHGGRLWCCTGNSIMVMKMNGSLHQELKIEENFKDTSTSFLAFQLLPEEEQLWAACAGRSEVYIWSLKDLAQPPQRVPLEDCSEINCMIRVKKQVWVGSRGLGQGTPKGKIYVIDAERKTVEKELVAHMDTVRTLCSAEDRYVLSGSGREEGKVAIWKGE [DENND3] | -0.339 | -0.197
13 | MAAFGRQVLDWHRLIPLTWACMARQTPHLGEQRRTTASLLRKLTTASNGGVIEELSCVRSNNYVQEPECRRNLVQCLLEKQGTPVVQGSLELERVMSSLLDMGFSNAHINELLSVRRGASLQQLLDIISEFILLGLNPEPVCVVLKKSPQLLKLPIMQMRKRSSYLQKLGLGEGKLKRVLYCCPEIFTMRQQDINDTVRLLKEKCLFTVQQVTKILHSCPSVLREDLGQLEYKFQYAYFRMGIKHPDIVKSEYLQYSLTKIKQRHIYLERLGRYQTPDKKGQTQIPNPLLKDILRVSEAEFLARTACTSVEEFQVFKKLLAREEEESESSTSDDKRASLDEDEDDDDEEDNDEDDNDEDDDDEDDDEAEDNDEDEDDDEEE [MTERF4] | 0.434 | -0.0189
14 | MATPGPVIPEVPFEPSKPPVIEGLSPTVYRNPESFKEKFVRKTRENPVVPIGCLATAAALTYGLYSFHRGNSQRSQLMMRTRIAAQGFTVAAILLGLAVTAMKSRP [HIGD2A] | -0.399 | 0.482
15 | MMAGCGEIDHSINMLPTNRKANESCSNTAPSLTVPECAICLQTCVHPVSLPCKHVFCYLCVKGASWLGKRCALCRQEIPEDFLDKPTLLSPEELKAASRGNGEYAWYYEGRNGWWQYDERTSRELEDAFSKGKKNTEMLIAGFLYVADLENMVQYRRNEHGRRRKIKRDIIDIPKKGVAGLRLDCDANTVNLARESSADGADSVSAQSGASVQPLVSSVRPLTSVDGQLTSPATPSPDASTSLEDSFAHLQLSGDNTAERSHRGEGEEDHESPSSGRVPAPDTSIEETESDASSDSEDVSAVVAQHSLTQQRLLVSNANQTVPDRSDRSGTDRSVAGGGTVSVSVRSRRPDGQCTVTEV [RNF146] | -0.244 | -0.158
